# Measurements published in article PMC8136821 (Nucleic Acids Research, 2021).
# B1: H. pylori RNase R (HpRNase R), recombinant, His-tagged (enzyme)
# chain: MQGFLRSLFFGVKKIPKPFAPLVEKGVLKEALELKKDRYFLKEGFDIGKVEKVKDKAFFISLAKNYPKDPLIKNLPPSFKTDALILCQIECSKKRPIAFFKAALLNADHTMIAYLAKKNNQIVAIPFKEPFKKPVSLKHSQKSLLELPRHCVVKIDTKKREISEILGALEDPLIDENLSLSLFDRVKDFSKDCLNLAQHYAQLKASDFKDRINYSHIPFITIDPKDAKDFDDAIFYDQEKRVLFVAVADVSEFVPKHSSLDKEARVRGFSVYFPNSVYPMLPLSLSQGACSLKAFEKRLALVYEIPLDNLKNARLSQGVIEVRANCTYEEINHFLSANQSSLDKDLQQSLLGFLEMALKLKKERLKKGFNFNSFENKLYLNKEGRIEKIETEKESDAHTLIEEAMLLANQSSARLLDEHFHNKGIYRTHKEPSLEQQKRLYDKLFDYEIVRPKNMGFFPFLEHALKIAKEKSIEREVSRLIIKSQNLALYSPLQESHFGLGFASYTHFTSPIRRYSDLALHRLLKELLFYQAKGCSYLLEETPELCAELNALQKKAALIERDFIKRKFARLALELLEKEFLGVVLEVKDWVVVGLKEFIGLKVLVKTNKVFKPLEKVRVTITHADLILGQVRGEITERIKEHVS
# Molecular target: RhpA DEAD-box RNA helicase of H. pylori, recombinant, His-tagged (H. pylori)
# Assay: SPR
binder,measurement,value
B1,Kd,29 ± 4.4 nM
same,kon,35000 M⁻¹ s⁻¹
